This passage reports screen value results from paper PMC12102759 (2025).

Sequences and labels used below:
B1: AMOTL2 peptide 64-79 (Angiomotin-like protein 2), 16-mer library wild type / TNKS ANK (TNKS 12 ANK repeats, residues 174-649) (parent complex)
chain 1: QVLQQATRQEPQGQEH
chain 2: TGVPAVSGALRELLEACRNGDVSRVKRLVDAANVNAKDMAGRKSSPLHFAAGFGRKDVVEHLLQMGANVHARDDGGLIPLHNACSFGHAEVVSLLLCQGADPNARDNWNYTPLHEAAIKGKIDVCIVLLQHGADPNIRNTDGKSALDLADPSAKAVLTGEYKKDELLEAARSGNEEKLMALLTPLNVNCHASDGRKSTPLHLAAGYNRVRIVQLLLQHGADVHAKDKGGLVPLHNACSYGHYEVTELLLKHGACVNAMDLWQFTPLHEAASKNRVEVCSLLLSHGADPTLVNCHGKSAVDMAPTPELRERLTYEFKGHSLLQAAREADLAKVKKTLALEIINFKQPQSHETALHCAVASLHPKRKQVTELLLRKGANVNEKNKDFMTPLHVAAERAHNDVMEVLHKHGAKMNALDTLGQTALHRAALAGHLQTCRLLLSYGSDPSIISLQGFTAAQMGNEAVQQILSESTPIRTSD

In this experiment the parent is B1. The experiment can be described thus: proteomic peptide phage display deep mutational scan (ProP-PD DMS): M13 P8 16-mer library selected against immobilised GST-tagged bait for four days (rounds), NGS of the eluted pools per day and pseudo-replica; bait immobilised on MaxiSorp plates (10 µg), library pre-cleared on GST, 2 h binding at 4 °C, five washes; one round per day, days 1-4; value from days 2 and 3.
chain 1 QVGQQATRQEPQGQEH [chain 1 L3G]: the screen value is 0.000399 average fractional NGS count over selection days 2 and 3 (reads of this peptide / all reads for the bait, averaged over ….

As for chain 1 QVVQQATRQEPQGQEH [chain 1 L3V], the screen value was 0.00036 average fractional NGS count over selection days 2 and 3 (reads of this peptide / all reads for the bait, averaged over …. As to chain 1 QVHQQATRQEPQGQEH [chain 1 L3H], the screen value is 0.00318 average fractional NGS count over selection days 2 and 3 (reads of this peptide / all reads for the bait, averaged over …. The same measure for chain 1 QVAQQATRQEPQGQEH [chain 1 L3A]: 0.000396 average fractional NGS count over selection days 2 and 3 (reads of this peptide / all reads for the bait, averaged over …; for chain 1 QVYQQATRQEPQGQEH [chain 1 L3Y]: 0.000502 average fractional NGS count over selection days 2 and 3 (reads of this peptide / all reads for the bait, averaged over …. For the variant chain 1 QVRQQATRQEPQGQEH [chain 1 L3R], the screen value was 0.000319 average fractional NGS count over selection days 2 and 3 (reads of this peptide / all reads for the bait, averaged over ….

Consider chain 1 QVSQQATRQEPQGQEH [chain 1 L3S], for which the screen value is 0.000145 average fractional NGS count over selection days 2 and 3 (reads of this peptide / all reads for the bait, averaged over …. As to chain 1 QVNQQATRQEPQGQEH [chain 1 L3N], the screen value was 0.00173 average fractional NGS count over selection days 2 and 3 (reads of this peptide / all reads for the bait, averaged over …. Take chain 1 QVEQQATRQEPQGQEH [chain 1 L3E]: the screen value was 0.00384 average fractional NGS count over selection days 2 and 3 (reads of this peptide / all reads for the bait, averaged over …. Take chain 1 QVLQQATRQEPQGMEH [chain 1 Q14M]: the screen value is 0.000951 average fractional NGS count over selection days 2 and 3 (reads of this peptide / all reads for the bait, averaged over …. The same measure for chain 1 QVLQQATRQEPQGYEH [chain 1 Q14Y]: 0.000143 average fractional NGS count over selection days 2 and 3 (reads of this peptide / all reads for the bait, averaged over …; for chain 1 QVLQQATRQEPQGAEH [chain 1 Q14A]: 0.0303 average fractional NGS count over selection days 2 and 3 (reads of this peptide / all reads for the bait, averaged over …. For chain 1 QVLQQATRQEPQGVEH [chain 1 Q14V] the value was 0.000381 average fractional NGS count over selection days 2 and 3 (reads of this peptide / all reads for the bait, averaged over …; for chain 1 QVLQQASRQEPQGQEH [chain 1 T7S], 0.000189 average fractional NGS count over selection days 2 and 3 (reads of this peptide / all reads for the bait, averaged over ….

In the case of chain 1 QVLQQAFRQEPQGQEH [chain 1 T7F], the screen value was 0.000844 average fractional NGS count over selection days 2 and 3 (reads of this peptide / all reads for the bait, averaged over …. With chain 1 QVLQQAVRQEPQGQEH [chain 1 T7V], the screen value is 0.00296 average fractional NGS count over selection days 2 and 3 (reads of this peptide / all reads for the bait, averaged over ….

Take chain 1 QVLQQAQRQEPQGQEH [chain 1 T7Q]: the screen value was 0.000226 average fractional NGS count over selection days 2 and 3 (reads of this peptide / all reads for the bait, averaged over ….

Take chain 1 QVLQQATRQEPQVQEH [chain 1 G13V]: the screen value was 0.00137 average fractional NGS count over selection days 2 and 3 (reads of this peptide / all reads for the bait, averaged over …. chain 1 QVLQQATRYEPQGQEH [chain 1 Q9Y]: the screen value was 0.000466 average fractional NGS count over selection days 2 and 3 (reads of this peptide / all reads for the bait, averaged over ….

Regarding chain 1 QVLQQATRHEPQGQEH [chain 1 Q9H], the screen value was 0.000266 average fractional NGS count over selection days 2 and 3 (reads of this peptide / all reads for the bait, averaged over …. For the variant chain 1 QVLQQATRMEPQGQEH [chain 1 Q9M], the screen value is 0.000331 average fractional NGS count over selection days 2 and 3 (reads of this peptide / all reads for the bait, averaged over …. Turning to chain 1 QVLQQATRPEPQGQEH [chain 1 Q9P], the screen value was 0.00216 average fractional NGS count over selection days 2 and 3 (reads of this peptide / all reads for the bait, averaged over …. For chain 1 QVLQQATRDEPQGQEH [chain 1 Q9D] the value was 0.00088 average fractional NGS count over selection days 2 and 3 (reads of this peptide / all reads for the bait, averaged over …. The same measure for chain 1 QVLQQATRTEPQGQEH [chain 1 Q9T]: 0.000851 average fractional NGS count over selection days 2 and 3 (reads of this peptide / all reads for the bait, averaged over …; for chain 1 QVLQQATREEPQGQEH [chain 1 Q9E]: 0.000877 average fractional NGS count over selection days 2 and 3 (reads of this peptide / all reads for the bait, averaged over …. The same measure for chain 1 QVLQQATRSEPQGQEH [chain 1 Q9S]: 0.000874 average fractional NGS count over selection days 2 and 3 (reads of this peptide / all reads for the bait, averaged over ….

In the case of chain 1 QVLQQATRLEPQGQEH [chain 1 Q9L], the screen value is 0.000942 average fractional NGS count over selection days 2 and 3 (reads of this peptide / all reads for the bait, averaged over …. For chain 1 QVLQQATRFEPQGQEH [chain 1 Q9F] the value was 0.000243 average fractional NGS count over selection days 2 and 3 (reads of this peptide / all reads for the bait, averaged over …; for chain 1 QDLQQATRQEPQGQEH [chain 1 V2D], 0.000341 average fractional NGS count over selection days 2 and 3 (reads of this peptide / all reads for the bait, averaged over …. The same measure for chain 1 QMLQQATRQEPQGQEH [chain 1 V2M]: 0.000248 average fractional NGS count over selection days 2 and 3 (reads of this peptide / all reads for the bait, averaged over …; for chain 1 QTLQQATRQEPQGQEH [chain 1 V2T]: 0.00555 average fractional NGS count over selection days 2 and 3 (reads of this peptide / all reads for the bait, averaged over …. For chain 1 QILQQATRQEPQGQEH [chain 1 V2I] the value was 0.0014 average fractional NGS count over selection days 2 and 3 (reads of this peptide / all reads for the bait, averaged over …. For chain 1 QELQQATRQEPQGQEH [chain 1 V2E], the screen value was 0.00192 average fractional NGS count over selection days 2 and 3 (reads of this peptide / all reads for the bait, averaged over …. For chain 1 QRLQQATRQEPQGQEH [chain 1 V2R] the value was 0.000931 average fractional NGS count over selection days 2 and 3 (reads of this peptide / all reads for the bait, averaged over …; for chain 1 QSLQQATRQEPQGQEH [chain 1 V2S], 0.000464 average fractional NGS count over selection days 2 and 3 (reads of this peptide / all reads for the bait, averaged over …; for chain 1 QVLGQATRQEPQGQEH [chain 1 Q4G], 0.000278 average fractional NGS count over selection days 2 and 3 (reads of this peptide / all reads for the bait, averaged over …. The same measure for chain 1 QVLWQATRQEPQGQEH [chain 1 Q4W]: 0.000181 average fractional NGS count over selection days 2 and 3 (reads of this peptide / all reads for the bait, averaged over …; for chain 1 QVLTQATRQEPQGQEH [chain 1 Q4T]: 0.0012 average fractional NGS count over selection days 2 and 3 (reads of this peptide / all reads for the bait, averaged over …. Take chain 1 QVLAQATRQEPQGQEH [chain 1 Q4A]: the screen value is 0.00355 average fractional NGS count over selection days 2 and 3 (reads of this peptide / all reads for the bait, averaged over ….

In the case of chain 1 QVLEQATRQEPQGQEH [chain 1 Q4E], the screen value is 0.000127 average fractional NGS count over selection days 2 and 3 (reads of this peptide / all reads for the bait, averaged over …. For chain 1 QVLRQATRQEPQGQEH [chain 1 Q4R] the value was 0.000203 average fractional NGS count over selection days 2 and 3 (reads of this peptide / all reads for the bait, averaged over …; for chain 1 QVLYQATRQEPQGQEH [chain 1 Q4Y], 0.00141 average fractional NGS count over selection days 2 and 3 (reads of this peptide / all reads for the bait, averaged over …. With chain 1 QVLMQATRQEPQGQEH [chain 1 Q4M], the screen value is 0.000805 average fractional NGS count over selection days 2 and 3 (reads of this peptide / all reads for the bait, averaged over …. For chain 1 QVLSQATRQEPQGQEH [chain 1 Q4S] the value was 0.000703 average fractional NGS count over selection days 2 and 3 (reads of this peptide / all reads for the bait, averaged over …. For chain 1 QVLQYATRQEPQGQEH [chain 1 Q5Y] the value was 0.000959 average fractional NGS count over selection days 2 and 3 (reads of this peptide / all reads for the bait, averaged over …; for chain 1 QVLQIATRQEPQGQEH [chain 1 Q5I], 0.00183 average fractional NGS count over selection days 2 and 3 (reads of this peptide / all reads for the bait, averaged over …. For chain 1 QVLQMATRQEPQGQEH [chain 1 Q5M] the value was 0.000456 average fractional NGS count over selection days 2 and 3 (reads of this peptide / all reads for the bait, averaged over …; for chain 1 QVLQLATRQEPQGQEH [chain 1 Q5L], 0.00018 average fractional NGS count over selection days 2 and 3 (reads of this peptide / all reads for the bait, averaged over …. As to chain 1 QVLQTATRQEPQGQEH [chain 1 Q5T], the screen value is 0.00669 average fractional NGS count over selection days 2 and 3 (reads of this peptide / all reads for the bait, averaged over …. Take chain 1 QVLQRATRQEPQGQEH [chain 1 Q5R]: the screen value was 0.000183 average fractional NGS count over selection days 2 and 3 (reads of this peptide / all reads for the bait, averaged over …. For chain 1 QVLQPATRQEPQGQEH [chain 1 Q5P], the screen value is 0.000503 average fractional NGS count over selection days 2 and 3 (reads of this peptide / all reads for the bait, averaged over …. As for chain 1 QVLQAATRQEPQGQEH [chain 1 Q5A], the screen value was 0.000657 average fractional NGS count over selection days 2 and 3 (reads of this peptide / all reads for the bait, averaged over …. For chain 1 QVLQHATRQEPQGQEH [chain 1 Q5H] the value was 0.0129 average fractional NGS count over selection days 2 and 3 (reads of this peptide / all reads for the bait, averaged over …. As for chain 1 QVLQQDTRQEPQGQEH [chain 1 A6D], the screen value is 0.000263 average fractional NGS count over selection days 2 and 3 (reads of this peptide / all reads for the bait, averaged over ….

For the variant chain 1 QVLQQETRQEPQGQEH [chain 1 A6E], the screen value was 0.000304 average fractional NGS count over selection days 2 and 3 (reads of this peptide / all reads for the bait, averaged over …. For chain 1 QVLQQSTRQEPQGQEH [chain 1 A6S] the value was 0.000255 average fractional NGS count over selection days 2 and 3 (reads of this peptide / all reads for the bait, averaged over …; for chain 1 QVLQQFTRQEPQGQEH [chain 1 A6F], 0.00286 average fractional NGS count over selection days 2 and 3 (reads of this peptide / all reads for the bait, averaged over …; for chain 1 QVLQQMTRQEPQGQEH [chain 1 A6M], 0.000267 average fractional NGS count over selection days 2 and 3 (reads of this peptide / all reads for the bait, averaged over …. The same measure for chain 1 QVLQQVTRQEPQGQEH [chain 1 A6V]: 0.0104 average fractional NGS count over selection days 2 and 3 (reads of this peptide / all reads for the bait, averaged over ….
